B1: Tpz1, two-hybrid fusion, wild type (construct limits not stated) [S. pombe] / Ccq1, two-hybrid fusion, wild type (construct limits not stated) [S. pombe] (parent complex)
chain 1: MSNCLKHPWLENGLLNLIKNADVLPIRVFKCQPLQIFEYIRYEHPIRCKLSDTEFYIEAEFSSQSISDLNNFTEKRITSLRGGIVTLGNFLIHLIPSQSGIIPWIQVESFNFQGCEGAVFGNPKAITTSALFNALLQSPYLAALANEFNRSIKEGSSYQEASLSQQEKPNDNTSNSRDIKNNIQFHWKNMTSLSIEECIIPKGQQLILEKESEENTTHGIYLEERKMAQGLHNSVSETPEVKQEDNDEDLDAYSWSSSTDSAGEIPSLPTNRKILEKIAEKPPPFESPLEDDETPDQTNEHEANQVNVSQLPLNPRGSGISGRPVESTEQLNSSLTIERSQSIQSTDSKQRVETQSHRRSKIEIFDAQDELFDRSICTTIDDSTGKLLNAEETPIKTGDLHSTSASSVISCTPPAINFTSDICNEQIELEYKRKPIPDYDFMKGLETTLQELYVEHQSKKRRLELFQLTNNHQKNSEACEMCRLGLPHGSFFELLRDWKKIEEFRNKS
chain 2: MSEINDFTNSIIINESDTKYEVYSEVNSSNRWIAKEDCPSPLEDVWLLKLAGHKRKLEEPLSCMRNEEPASKQREIEKFLRTDLDHSENDFLTQEVDEFPSTQQLFPIPLQNDTAFDSSEESITKSSKSSFSVLDIGLPMSALQRKMMHRLVQYFAFCIDHFCTGPSDSRIQEKIRLFIQSAHNIAKHPSLYDTEVRNPSAAESTNSHVSLDASNFSSYAENSSKFLFLQELFKNLSPSYSKTFFLFISNQFLANTLTQWLKSQNIDAELWAEEDAKTSQHPAIWICVSKKAPSASHFLQSCPDLSATIFYDIEAYMSVTSSLPSIQSLVLRLIHLGSIEHAIKCFQSSYNASFLVNIVGVVATLSSSSEENSEASNLSTLFEKSGNFEEILGSESHSSITEKTRDIAKNVATWLKNGENFSSWPLPPLMDLASLSVAEPRDSQPSVSQVNDTFVKSSDSTFPSSQSMQSPSKLHSLTSNATDLLSSSSLKKNFFSQQEADEVELSNNYDLQGAAVQYLQRRLRMVEDELHEAINSKNVQQSRSEELEQQISKLTDNLQEYRNTVRELKLDLEKSKKKNEDLSKLEVEKVEEIANLKKELTHLAKQQEFGFKYVQEFSNEDLQGKLIEANEKNYKLTQLLKTQKEDADFITNQYQNASTFAAEQSKEVAKLQAECKRLQAINSKVMEEVKVYNDSRVEALLAKVSSLEETLKILEQKSLPKFTPHNQSPRIIDSN

Results on 18 variants are retold here after paper PMC9333443, “Structural insights into Pot1-ssDNA, Pot1-Tpz1 and Tpz1-Ccq1 Interactions within fission yeast shelterin complex” (PLoS Genetics, 2022).

In one assay the parent is B1. Briefly: yeast two-hybrid (β-galactosidase); parent: 100; read off a plot.
As to chain 2 L143R, the percent of parent was about 16 % WT.

On to chain 2 L151R, for which the percent of parent is about 13 % WT.

As for chain 2 L177R, the percent of parent is about 85 % WT.

On to chain 2 E221R, for which the percent of parent was about 31 % WT.

For chain 2 F155R, the percent of parent was about 13 % WT.

With chain 2 M147R, the percent of parent is about 13 % WT.

Consider chain 2 I185R, for which the percent of parent was about 13 % WT.

Consider chain 2 P189R, for which the percent of parent was about 13 % WT.

Variants of B1 are the subject of the next assay. The assay is described as above. This is another data set of the same source.
Regarding chain 1 MSNCLKHPWLENGLLNLIKNADVLPIRVFKCQPLQIFEYIRYEHPIRCKLSDTEFYIEAEFSSQSISDLNNFTEKRITSLRGGIVTLGNFLIHLIPSQSGIIPWIQVESFNFQGCEGAVFGNPKAITTSALFNALLQSPYLAALANEFNRSIKEGSSYQEASLSQQEKPNDNTSNSRDIKNNIQFHWKNMTSLSIEECIIPKGQQLILEKESEENTTHGIYLEERKMAQGLHNSVSETPEVKQEDNDEDLDAYSWSSSTDSAGEIPSLPTNRKILEKIAEKPPPFESPLEDDETPDQTNEHEANQVNVSQLPLNPRGSGISGRPVESTEQLNSSLTIERSQSIQSTDSKQRVETQSHRRSKIEIFDAQDELFDRSICTTIDDSTGKLLNAEETPIKTGDLHSTSASSVISCTPPAINFTSDICNEQIELEYKRKPIPDYDFMKGRETTLQELYVEHQSKKRRLELFQLTNNHQKNSEACEMCRLGLPHGSFFELLRDWKKIEEFRNKS [chain 1 L445R], the percent of parent was about 14 % WT.

Take chain 1 MSNCLKHPWLENGLLNLIKNADVLPIRVFKCQPLQIFEYIRYEHPIRCKLSDTEFYIEAEFSSQSISDLNNFTEKRITSLRGGIVTLGNFLIHLIPSQSGIIPWIQVESFNFQGCEGAVFGNPKAITTSALFNALLQSPYLAALANEFNRSIKEGSSYQEASLSQQEKPNDNTSNSRDIKNNIQFHWKNMTSLSIEECIIPKGQQLILEKESEENTTHGIYLEERKMAQGLHNSVSETPEVKQEDNDEDLDAYSWSSSTDSAGEIPSLPTNRKILEKIAEKPPPFESPLEDDETPDQTNEHEANQVNVSQLPLNPRGSGISGRPVESTEQLNSSLTIERSQSIQSTDSKQRVETQSHRRSKIEIFDAQDELFDRSICTTIDDSTGKLLNAEETPIKTGDLHSTSASSVISCTPPAINFTSDICNEQIELEYKRKPIPDYDFMKGLETTLQELYVEAQSKKRRLELFQLTNNHQKNSEACEMCRLGLPHGSFFELLRDWKKIEEFRNKS [chain 1 H456A]: the percent of parent was about 100 % WT.

chain 1 MSNCLKHPWLENGLLNLIKNADVLPIRVFKCQPLQIFEYIRYEHPIRCKLSDTEFYIEAEFSSQSISDLNNFTEKRITSLRGGIVTLGNFLIHLIPSQSGIIPWIQVESFNFQGCEGAVFGNPKAITTSALFNALLQSPYLAALANEFNRSIKEGSSYQEASLSQQEKPNDNTSNSRDIKNNIQFHWKNMTSLSIEECIIPKGQQLILEKESEENTTHGIYLEERKMAQGLHNSVSETPEVKQEDNDEDLDAYSWSSSTDSAGEIPSLPTNRKILEKIAEKPPPFESPLEDDETPDQTNEHEANQVNVSQLPLNPRGSGISGRPVESTEQLNSSLTIERSQSIQSTDSKQRVETQSHRRSKIEIFDAQDELFDRSICTTIDDSTGKLLNAEETPIKTGDLHSTSASSVISCTPPAINFTSDICNEQIELEYKRKAIPDYDFMKGLETTLQELYVEHQSKKRRLELFQLTNNHQKNSEACEMCRLGLPHGSFFELLRDWKKIEEFRNKS [chain 1 P435A]: the percent of parent is about 65 % WT.

In the case of chain 1 MSNCLKHPWLENGLLNLIKNADVLPIRVFKCQPLQIFEYIRYEHPIRCKLSDTEFYIEAEFSSQSISDLNNFTEKRITSLRGGIVTLGNFLIHLIPSQSGIIPWIQVESFNFQGCEGAVFGNPKAITTSALFNALLQSPYLAALANEFNRSIKEGSSYQEASLSQQEKPNDNTSNSRDIKNNIQFHWKNMTSLSIEECIIPKGQQLILEKESEENTTHGIYLEERKMAQGLHNSVSETPEVKQEDNDEDLDAYSWSSSTDSAGEIPSLPTNRKILEKIAEKPPPFESPLEDDETPDQTNEHEANQVNVSQLPLNPRGSGISGRPVESTEQLNSSLTIERSQSIQSTDSKQRVETQSHRRSKIEIFDAQDELFDRSICTTIDDSTGKLLNAEETPIKTGDLHSTSASSVISCTPPAINFTSDICNEQIELEYKRKPIPDYDFMKGLETTLQELRVEHQSKKRRLELFQLTNNHQKNSEACEMCRLGLPHGSFFELLRDWKKIEEFRNKS [chain 1 Y453R], the percent of parent was about 16 % WT.

For chain 1 MSNCLKHPWLENGLLNLIKNADVLPIRVFKCQPLQIFEYIRYEHPIRCKLSDTEFYIEAEFSSQSISDLNNFTEKRITSLRGGIVTLGNFLIHLIPSQSGIIPWIQVESFNFQGCEGAVFGNPKAITTSALFNALLQSPYLAALANEFNRSIKEGSSYQEASLSQQEKPNDNTSNSRDIKNNIQFHWKNMTSLSIEECIIPKGQQLILEKESEENTTHGIYLEERKMAQGLHNSVSETPEVKQEDNDEDLDAYSWSSSTDSAGEIPSLPTNRKILEKIAEKPPPFESPLEDDETPDQTNEHEANQVNVSQLPLNPRGSGISGRPVESTEQLNSSLTIERSQSIQSTDSKQRVETQSHRRSKIEIFDAQDELFDRSICTTIDDSTGKLLNAEETPIKTGDLHSTSASSVISCTPPAINFTSDICNEQIELEYKRKPIPDYDAMKGLETTLQELYVEHQSKKRRLELFQLTNNHQKNSEACEMCRLGLPHGSFFELLRDWKKIEEFRNKS [chain 1 F441A], the percent of parent is about 14 % WT.

As for chain 1 MSNCLKHPWLENGLLNLIKNADVLPIRVFKCQPLQIFEYIRYEHPIRCKLSDTEFYIEAEFSSQSISDLNNFTEKRITSLRGGIVTLGNFLIHLIPSQSGIIPWIQVESFNFQGCEGAVFGNPKAITTSALFNALLQSPYLAALANEFNRSIKEGSSYQEASLSQQEKPNDNTSNSRDIKNNIQFHWKNMTSLSIEECIIPKGQQLILEKESEENTTHGIYLEERKMAQGLHNSVSETPEVKQEDNDEDLDAYSWSSSTDSAGEIPSLPTNRKILEKIAEKPPPFESPLEDDETPDQTNEHEANQVNVSQLPLNPRGSGISGRPVESTEQLNSSLTIERSQSIQSTDSKQRVETQSHRRSKIEIFDAQDELFDRSICTTIDDSTGKLLNAEETPIKTGDLHSTSASSVISCTPPAINFTSDICNEQIELEYKRKPIPDADFMKGLETTLQELYVEHQSKKRRLELFQLTNNHQKNSEACEMCRLGLPHGSFFELLRDWKKIEEFRNKS [chain 1 Y439A], the percent of parent was about 15 % WT.

Consider chain 1 MSNCLKHPWLENGLLNLIKNADVLPIRVFKCQPLQIFEYIRYEHPIRCKLSDTEFYIEAEFSSQSISDLNNFTEKRITSLRGGIVTLGNFLIHLIPSQSGIIPWIQVESFNFQGCEGAVFGNPKAITTSALFNALLQSPYLAALANEFNRSIKEGSSYQEASLSQQEKPNDNTSNSRDIKNNIQFHWKNMTSLSIEECIIPKGQQLILEKESEENTTHGIYLEERKMAQGLHNSVSETPEVKQEDNDEDLDAYSWSSSTDSAGEIPSLPTNRKILEKIAEKPPPFESPLEDDETPDQTNEHEANQVNVSQLPLNPRGSGISGRPVESTEQLNSSLTIERSQSIQSTDSKQRVETQSHRRSKIEIFDAQDELFDRSICTTIDDSTGKLLNAEETPIKTGDLHSTSASSVISCTPPAINFTSDICNEQIELEYKRKPIPAYDFMKGLETTLQELYVEHQSKKRRLELFQLTNNHQKNSEACEMCRLGLPHGSFFELLRDWKKIEEFRNKS [chain 1 D438A], for which the percent of parent is about 100 % WT.

With chain 1 MSNCLKHPWLENGLLNLIKNADVLPIRVFKCQPLQIFEYIRYEHPIRCKLSDTEFYIEAEFSSQSISDLNNFTEKRITSLRGGIVTLGNFLIHLIPSQSGIIPWIQVESFNFQGCEGAVFGNPKAITTSALFNALLQSPYLAALANEFNRSIKEGSSYQEASLSQQEKPNDNTSNSRDIKNNIQFHWKNMTSLSIEECIIPKGQQLILEKESEENTTHGIYLEERKMAQGLHNSVSETPEVKQEDNDEDLDAYSWSSSTDSAGEIPSLPTNRKILEKIAEKPPPFESPLEDDETPDQTNEHEANQVNVSQLPLNPRGSGISGRPVESTEQLNSSLTIERSQSIQSTDSKQRVETQSHRRSKIEIFDAQDELFDRSICTTIDDSTGKLLNAEETPIKTGDLHSTSASSVISCTPPAINFTSDICNEQIELEYKAKPIPDYDFMKGLETTLQELYVEHQSKKRRLELFQLTNNHQKNSEACEMCRLGLPHGSFFELLRDWKKIEEFRNKS [chain 1 R433A], the percent of parent is about 90 % WT.

As for chain 1 MSNCLKHPWLENGLLNLIKNADVLPIRVFKCQPLQIFEYIRYEHPIRCKLSDTEFYIEAEFSSQSISDLNNFTEKRITSLRGGIVTLGNFLIHLIPSQSGIIPWIQVESFNFQGCEGAVFGNPKAITTSALFNALLQSPYLAALANEFNRSIKEGSSYQEASLSQQEKPNDNTSNSRDIKNNIQFHWKNMTSLSIEECIIPKGQQLILEKESEENTTHGIYLEERKMAQGLHNSVSETPEVKQEDNDEDLDAYSWSSSTDSAGEIPSLPTNRKILEKIAEKPPPFESPLEDDETPDQTNEHEANQVNVSQLPLNPRGSGISGRPVESTEQLNSSLTIERSQSIQSTDSKQRVETQSHRRSKIEIFDAQDELFDRSICTTIDDSTGKLLNAEETPIKTGDLHSTSASSVISCTPPAINFTSDICNEQIELEYARKPIPDYDFMKGLETTLQELYVEHQSKKRRLELFQLTNNHQKNSEACEMCRLGLPHGSFFELLRDWKKIEEFRNKS [chain 1 K432A], the percent of parent was about 72 % WT.

On to chain 1 MSNCLKHPWLENGLLNLIKNADVLPIRVFKCQPLQIFEYIRYEHPIRCKLSDTEFYIEAEFSSQSISDLNNFTEKRITSLRGGIVTLGNFLIHLIPSQSGIIPWIQVESFNFQGCEGAVFGNPKAITTSALFNALLQSPYLAALANEFNRSIKEGSSYQEASLSQQEKPNDNTSNSRDIKNNIQFHWKNMTSLSIEECIIPKGQQLILEKESEENTTHGIYLEERKMAQGLHNSVSETPEVKQEDNDEDLDAYSWSSSTDSAGEIPSLPTNRKILEKIAEKPPPFESPLEDDETPDQTNEHEANQVNVSQLPLNPRGSGISGRPVESTEQLNSSLTIERSQSIQSTDSKQRVETQSHRRSKIEIFDAQDELFDRSICTTIDDSTGKLLNAEETPIKTGDLHSTSASSVISCTPPAINFTSDICNEQIELEYKRKPIPDYDFMKGLETTRQELYVEHQSKKRRLELFQLTNNHQKNSEACEMCRLGLPHGSFFELLRDWKKIEEFRNKS [chain 1 L449R], for which the percent of parent was about 15 % WT.
